# Measured values: publication PMC8882475
# Experiments:
# Assay in all cases: BLI
# [1] = target: biotinylated SARS-CoV-2 S protein RBD, Beta variant (K417N, E484K, N501Y) (SARS-CoV-2) (UniProt P0DTC2)
# [2] = target: SI–F019, huACE2 (18–615) - IgG1 Fc null (human) (UniProt Q9BYF1)
# [3] = target: Bamlanivimab
# [4] = target: SARS-CoV-2 RBD, Alpha (N501Y) (SARS-CoV-2) (UniProt P0DTC2)
# [5] = target: SARS-CoV-2 RBD, Lambda (L452Q, F490S) (SARS-CoV-2) (UniProt P0DTC2)
# [6] = target: SARS-CoV-2 RBD, Beta (K417N, E484K, N501Y) (SARS-CoV-2) (UniProt P0DTC2)
# [7] = target: SARS-CoV-2 S1 protein (SARS-CoV-2)
# [8] = target: SARS-CoV-2 spike trimer, full-length extracellular domain (ECD), His tagged (SARS-CoV-2) (UniProt P0DTC2)
# [9] = target: SARS-CoV-2 RBD, Gamma (K417T, E484K, N501Y) (SARS-CoV-2) (UniProt P0DTC2)
# [10] = target: SARS-CoV-2 RBD (original, WT) (SARS-CoV-2) (UniProt P0DTC2)
# [11] = target: SARS-CoV-2 RBD, Delta (L452R, T478K) (SARS-CoV-2) (UniProt P0DTC2)
# [12] = target: SARS-CoV-2 RBD, Kappa (L452R, E484Q) (SARS-CoV-2) (UniProt P0DTC2)
substance,measurement,setting,value
Imdevimab (antibody),Kd,[1],< 0.001 nM
"SARS-CoV-2 RBD, Delta (L452R, T478K) (from UniProt P0DTC2) (domain or fragment)",Kd,[2],7.26 nM
"SARS-CoV-2 RBD, Lambda (L452Q, F490S) (from UniProt P0DTC2) (domain or fragment)",Kd,[2],13.5 nM
SARS-CoV-2 S1 protein (domain or fragment),Kd,[2],14.7 nM
same,koff,[2],0.00493 s⁻¹
same,kon,[2],337000 M⁻¹ s⁻¹
"SARS-CoV-2 S protein RBD, Delta variant (L452R, T478K) (from UniProt P0DTC2) (domain or fragment)",Kd,[3],3.61 nM
"SI–F019, huACE2 (18–615) - IgG1 Fc null (from UniProt Q9BYF1-1 18-615) (Fc fusion)",Kd,[4],0.019 nM
same,Kd,[5],0.0892 nM
same,Kd,[6],0.0635 nM
same,Kd,[7],0.29 nM
same,Kd,[8],0.18 nM
same,Kd,[9],0.0623 nM
same,Kd,[10],0.114 nM
same,Kd,[11],0.0141 nM
same,Kd,[12],< 0.001 nM
Tixagevimab (antibody),Kd,[1],< 0.001 nM
